Assay results from article PMC11263360, “The structural basis of the activation and inhibition of DSR2 NADase by phage proteins” (Nature Communications, 2024).
Changes are numbered by the printed parent chain. Names and notes keep the numbering of the source.

B1: tail tube protein (TTP) from SPR phage (natural protein, UniProt A0AAE9G628 1-264, looked up)
chain: MKTVIQDTADVYFKRKSDGKLVFTAEAQTASFSQAISEEKLRGGIGNKPLYILKSEKEINLTVKNAFFDLEWLAMTQGETIQEETKVKVFDREHGLIVDDTNKVTLKGKPVSDVTFYNKKGLTYKIAVSTDGTYTIPTAFAAAKDKLTAVYQIEKVGRRLAIKASKFSERYEVEYRTIAYNPDTEEVYSDIYIQFPNVSPSGEFEMSLENGNALAPEIKFEALADTDTDEMAVVIEASRDENTAAPVEDTTGSTQSSDLGGTTE
notes: tail tube protein (TTP), SPR phage, WP_010328117, full length; Residues 80-167 have no density in the cryo-EM map; source: E. coli BL21 (DE3), purified (Ni-NTA, size exclusion)
B2: DSR2 from Bacillus subtilis 29 R, wild type (enzyme, UniProt P0DXN8 1-1005, looked up)
chain: MVKVDLESKRYGEKLKEVFLMLDNNVVECIKEITESSRNGKLVFFVGAGVSTLSDYPQWWRLVDKYHEELYGSPKKGNYSSDEYLRIPQIFYNVKGEMAFDGILKDFFQVDKPTNPIHDKILAMNPAHVITTNYDNLIDTACWKRGKYFSVISAEEDVANATSSRYLLKVHGDFRKGFKGENVVLKEDDYLNYDQNYPLISNLMKTIIATHTIVFIGYGLGDYNINMLLNWVRKLQKDSFHKPFFIRTDPSPIENETLIYYENKGLRIIDAASLIDSNEYDYLERYSAVMDLLIESQENKFITKDDEVIDYIYGKISPLFALQYIRKIDLKHVFEYDYHFEVNGTVVRHKNKGFGYMERFFELKESCDERSKLSKKQYERFNALFNFFEKNGVICMAKDAGTLNTSIEINSLAYHGKYDVMKKFIEEQSVSIEDDYKKAFFLACLGRWEESYDLYSNIILNSIDESNGCVYYLSQINRYRIYQSITQAVTQFNGLGLLTFGRHYKPFTDEFLARIEREMTNFNIDDLFNGMPFEFQKKYKILEFLSDNQFLYDDTVKLFELTNKVRSEMSEGSYSFGMSSDIVVLLRLYDNLRFLYENCLWSVSFHEFHQYIRNSMSLLIEKAEYERTRDIDELGFSFFGKKSGFFMEYYDFVNISRHFKIDDIKNLERSCSIDKIRFGEQEKIEEYLVGIAEEITKQFSANGMNVVFYTQFISEAKAALYFAKYVKLSEEGLGKIVKALLFYFPERDLDIGKRYVWLERLTKCNELPKSIISIIDDFLVLQAEKHIDQNYSEVSSNGLYSRDYGALIKHFEKNFISKRLSEITLCLTQDKQKQIDFLFKLLPLLSTNAKSHLLSFKSVENINDLMNGIRIGLIDEFTPEHEELIIEYLETRKVNYIVEKEKGIQTFSSNDYMSTFGIWYFLEEINNSKMEEFIGMDDQYDFFVDPENFDYKKFIPSWLKNYNDKLLGKIAGNKHMKHHVIEVLKERVKNSNDKRYLEILMNYFI
notes: DSR2, Sir2 domain-containing NADase, Bacillus subtilis 29 R, WP_029317421, full length (domains described over residues 1-1005); Cloned into pRSF-32M or pET-32M.3C (both add N-terminal thioredoxin and 6xHis); Crosslinked with BS3 for part of the cryo-EM data; also called WT DSR2; wild-type (WT) DSR2; source: E. coli BL21 (DE3), purified (Ni-NTA, size exclusion); for the DSR2-DSAD1 complex …
B3: DSR2 Y260E mutant (enzyme, Bacillus subtilis 29 R, UniProt P0DXN8 1-1005, looked up)
chain: B2 chain with Y260E
notes: DSR2, Bacillus subtilis 29 R, WP_029317421, full length, with Y260E; AUC mass 215 kDa against 425 kDa for the wild type; source: E. coli BL21 (DE3), purified
B4: DSR2 (H171A) catalytically inactive mutant (enzyme, Bacillus subtilis 29 R, UniProt P0DXN8 1-1005, looked up)
chain: B2 chain with H171A
notes: DSR2, Bacillus subtilis 29 R, WP_029317421, full length, with H171A; Crosslinked with 1 mM BS3 before cryo-EM; source: E. coli BL21 (DE3), purified (Ni-NTA, size exclusion)
B5: DSAD1 from SPbeta phage (co-expressed with DSR2) (natural protein, UniProt Q796A8 1-120, looked up)
chain: MIEIFKDTGATHDLVYHSKINTFVWDVEFDIVLSDSKELNKCYFVKCFNPYRINGKCDFAVSSIDIFSEGKRLLIENEFNFKITKAVHVATSKDVTEIVLHLSERISSPFPIVKEVVYLD
notes: DSAD1, SPbeta phage, WP_004399562, full length; source: E. coli BL21 (DE3), co-expressed with DSR2, complex co-purified (as apo DSR2: Ni-NTA, size exclusion)

Experiments:
[1] = target: B4; assay: cryo-EM structure; purified DSR2 (H171A)-TTP complex, crosslinked with 1 mM BS3, with 1 mM NAD+; 20 mM HEPES pH 7.5, 100 mM NaCl, 0.5 mM TCEP; conditions: both partners purified
[2] = target: the molecule itself; assay: cryo-EM structure; DSR2-DSAD1 complex co-expressed in E. coli and co-purified; uncrosslinked and BS3-crosslinked samples
[3] = target: the molecule itself; assay: AUC; sedimentation velocity, 12 °C, 0.8 mg/ml, 20 mM Tris-HCl pH 7.5, 100 mM NaCl, 1 mM DTT; SEDFIT
[4] = target: the molecule itself; assay: cryo-EM structure; DSR2 (H171A) alone, crosslinked with 1 mM BS3 in the presence of NAD+; 20 mM HEPES pH 7.5, 100 mM NaCl, 0.5 mM TCEP
[5] = target: B2; assay: cryo-EM structure; DSR2-DSAD1 complex co-expressed in E. coli and co-purified; uncrosslinked and BS3-crosslinked samples; conditions: both partners purified

B1
stoichiometry N [1]: 0.5 TTP per DSR2 (2:4)

B2
stoichiometry N [2]: 4

B3
binding result [3]: binds

B4
stoichiometry N [4]: 4

B5
stoichiometry N [5]: 0.5 DSAD1 per DSR2 (2:4)
